According to PMC10425332, “Programming conformational cooperativity to regulate allosteric protein-oligonucleotide signal transduction”:

What was measured:
[1] = target: T1, thrombin (UniProt P00734;P00734 328-363;364-622); experiment: PAGE and FAM/BHQ1 fluorescence (release of strand D); Mg2+; indirect read-out; complexes annealed in 1x TAE/Mg2+ buffer, DNA complex about 0.5-0.6 uM; thrombin trigger 2 h at room temperature (cell experiments); pH and Mg2+ concentration n
[2] = target: T1, thrombin; experiment: PAGE (release of DGFP); Mg2+; indirect read-out; complexes annealed in 1x TAE/Mg2+ buffer, DNA complex about 0.5-0.6 uM; thrombin trigger 2 h at room temperature (cell experiments); pH and Mg2+ concentration n
[3] = target: T1, thrombin; experiment: PAGE and fluorescence (release of strand D); Mg2+; indirect read-out; complexes annealed in 1x TAE/Mg2+ buffer, DNA complex about 0.5-0.6 uM; thrombin trigger 2 h at room temperature (cell experiments); pH and Mg2+ concentration n

B1: complex CDAB (15Apt and 29Apt thrombin aptamers on B and A) (structured_DNA)
DNA 1: AATGGTCCTATGATTCCGTTTTTTTTTTTTGTCACTAGCTACTAGGTAGCTAGTGACGTTATTTTTTTTATGAGAGAGAGTGTGTCC
DNA 2: TAACGTCACTAGCTACCTTTTTTTTTTTTTTTTTTTTTTTTTTTTTTTTTTTTTTTT
DNA 3: GGACACACTCTCTCTCATTTTAGTCCGTGGTAGGGCAGGTTGGGGTGACT
DNA 4: GGTTGGTGTGGTTGGTTTCGGAATCATAGGACCATT
binding result [1]: binds

B2: complex-G C3DGFPAB (T1 3 nt, T2 12 nt) (structured_DNA)
DNA 1: AATGGTCCTATGATTCCGTTTTTTTTTTTTTGCACGCTGCCGTTACGGCAGCGTGCAGCTCTTTTTTTTATGAGAGAGAGTGTGTCC
DNA 2: GAGCTGCACGCTGCCGTCTTTTTTTTTTTTTTTTTTTTTTTTTTTTTTTTTTTTTTTTT
DNA 3: GGACACACTCTCTCTCATTTTAGTCCGTGGTAGGGCAGGTTGGGGTGACT
DNA 4: GGTTGGTGTGGTTGGTTTCGGAATCATAGGACCATT
binding result [2]: binds

B3: single-trigger-site complex with E-29apt (structured_DNA)
DNA 1: AATGGTCCTATGATTCCGTTTTTTTTTTTTGTCACTAGCTACTAGGTAGCTAGTGACGTTATTTTTTTTATGAGAGAGAGTGTGTCC
DNA 2: TAACGTCACTAGCTACCTTTTTTTTTTTTTTTTTTTTTTTTTTTTTTTTTTTTTTTT
DNA 3: GGACACACTCTCTCTCATTTTAGTCCGTGGTAGGGCAGGTTGGGGTGACTTTTCGGAATCATAGGACCATT
binding result [3]: binds
